According to patent US11396552 (DIABETES FREE, dated 2022):

Tests used:
[1] = target: CD40 on peripheral blood mononuclear cells (PBMC) from healthy donors (human, UniProt P25942 21-277); experiment: cell-based or functional assay
recombinant CD40 = target: T1, recombinant CD40 (human, UniProt P25942 21-193, limits assumed); experiment: ELISA, plates coated with recombinant CD40, AP-conjugated anti-human kappa detection; effective concentration in supernatant read on a PG102 reference curve
T1 construct: the ELISA method itself names no species or construct; also called antigen CD40
T1 sequence (P25942 21-193 limits assumed): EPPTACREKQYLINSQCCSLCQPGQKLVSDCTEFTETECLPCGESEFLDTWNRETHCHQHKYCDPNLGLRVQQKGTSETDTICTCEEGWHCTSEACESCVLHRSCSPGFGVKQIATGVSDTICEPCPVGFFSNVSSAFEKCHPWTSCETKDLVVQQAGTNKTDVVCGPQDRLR
Method: Binding of the antibody variants to CD40 was measured using an ELISA based assay based on UKSL-2057. Microtiter plates were coated with recombinant CD40 before the antibody variants were added and detected using an alkaline phosphatase conjugated antihuman kappa IgG.
Samples were then prepared and analyzed The results were converted to effective concentrations in the clarified supernatant […] This assay provides an assessment of the affinity of the antibody variants for CD40.

Chain of CD40 on peripheral blood mononuclear cells (PBMC) from healthy donors (P25942 21-277): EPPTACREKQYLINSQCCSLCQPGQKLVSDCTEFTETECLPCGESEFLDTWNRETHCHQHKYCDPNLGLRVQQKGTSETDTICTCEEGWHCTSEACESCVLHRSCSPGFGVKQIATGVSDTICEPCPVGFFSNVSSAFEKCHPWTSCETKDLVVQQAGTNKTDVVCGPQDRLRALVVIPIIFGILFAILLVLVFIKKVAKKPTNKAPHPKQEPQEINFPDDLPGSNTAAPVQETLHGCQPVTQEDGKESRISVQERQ

Row | Percentage inhibition of TNF secretion at 1 ng/ml [1] [%] | Percentage inhibition of TNF secretion at 10 ng/ml [1] [%] | CD40 binding (recombinant CD40) [mg/L] | Binder
1 | -5.2 | 81.2 | 14.6 | PG102 wild-type recombinant antibody (antibody, human IgG4 S228P, kappa, V domains shown, Human IgG4pro(deltaK) heavy, kappa light; also called PG102_Wt; PG102 wt) VH: QVKLQESGPGLVKPSETLSITCTVSGFSLSRYSVYWIRQPPGKGPEWMGMMWGGGSTDYSTSLKSRLTISKDTSKSQVSLKMNSLRTDDTAMYYCVRTDGDYWGQGTTVTVSS VL: ELQLTQSPLSLPVTLGQPASISCRSSQSLANSNGNTYLHWYLQRPGQSPRLLIYKVSNRFSGVPDRFSGSGSGTDFTLKISRVEAEDVGVYYCSQSTHVPWTFGGGTKLEIKR
2 | – | – | 33.6 | PG102_Var7 (antibody, human IgG4 S228P, kappa, V domains shown, IgG4pro(deltaK)/kappa; also called FFP104_Var7) VH: QVQLQESGPGLVKPSQTLSLTCTVSGFSLSRYSVYWVRQPPGKGLEWIGMMWGGGSTDYNPSLKSRLTISKDTSKSQVSLKLSSLTAADTAVYYCVRTDGDYWGQGTLVTVSS VL: ELQLTQSPLSLPVTLGQPASISCRSSQSLASSQGNTYLHWYLQRPGQSPRLLIYKVSNRFSGVPDRFSGSGSGTDFTLKISRVEAEDVGVYYCSQSTHVPWTFGGGTKLEIKR
3 | – | – | 23.5 | PG102_Var8 (antibody, human IgG4 S228P, kappa, V domains shown, IgG4pro(deltaK)/kappa; also called FFP104_Var8) VH: QVQLVESGGGLVKPGGSLRLSCAVSGFSLSRYSVYWIRQAPGKGLEWMGMMWGGGSTDYSTSVKGRFTISKDNAKTSVYLQMSSLRAEDTAVYYCVRTDGDYWGQGTLVTVSS VL: ELQLTQSPLSLPVTLGQPASISCRSSQSLASSQGNTYLHWYLQRPGQSPRLLIYKVSNRFSGVPDRFSGSGSGTDFTLKISRVEAEDVGVYYCSQSTHVPWTFGGGTKLEIKR
4 | 22.5 | 87.4 | 34.9 | PG102_Var5 (antibody, human IgG4 S228P, kappa, V domains shown, IgG4pro(deltaK)/kappa; also called FFP104_Var5) VH: QVQLQESGPGLVKPSETLSITCTVSGFSLSRYSVYWIRQPPGKGPEWMGMMWGGGSTDYSTSLKSRLTISKDTSKSQVSLKMSSLTAADTAVYYCVRTDGDYWGQGTLVTVSS VL: ELQLTQSPLSLPVTLGQPASISCRSSQSLASSQGNTYLHWYLQRPGQSPRLLIYKVSNRFSGVPDRFSGSGSGTDFTLKISRVEAEDVGVYYCSQSTHVPWTFGGGTKLEIKR
5 | – | – | 22.8 | PG102_Var13 (antibody, human IgG4 S228P, kappa, V domains shown, IgG4pro(deltaK)/kappa; also called FFP104_Var13) VH: QVQLQESGPGLVKPSETLSITCTVSGFSLSRYSVYWIRQPPGKGPEWMGMMWGGGSTDYSTSLKSRLTISKDTSKSQVSLKMSSLTAADTAVYYCVRTDGDYWGQGTLVTVSS VL: DIVMTQSPLSLPVTPGQPASISCRSSQSLASSQGNTYLHWYLQKPGQSPRLLIYKVSNRFSGVPDRFSGSGSGTDFTLKISRVEAEDVGVYYCSQSTHVPWTFGGGTKLEIKR
6 | 16.1 | 88.5 | 38.5 | PG102_Var3 (antibody, human IgG4 S228P, kappa, V domains shown, IgG4pro(deltaK)/kappa; also called FFP104_Var3) VH: QVQLQESGPGLVKPSQTLSLTCTVSGFSLSRYSVYWVRQPPGKGLEWIGMMWGGGSTDYNPSLKSRLTISKDTSKSQVSLKLSSLTAADTAVYYCVRTDGDYWGQGTLVTVSS VL: ELQLTQSPLSLPVTLGQPASISCRSSQSLASSSGNTYLHWYLQRPGQSPRLLIYKVSNRFSGVPDRFSGSGSGTDFTLKISRVEAEDVGVYYCSQSTHVPWTFGGGTKLEIKR
7 | – | – | 2.35 | PG102_Var12 (antibody, human IgG4 S228P, kappa, V domains shown, IgG4pro(deltaK)/kappa; also called FFP104_Var12) VH: QVQLVESGGGLVKPGGSLRLSCAVSGFSLSRYSVYWIRQAPGKGLEWMGMMWGGGSTDYSTSVKGRFTISKDNAKTSVYLQMSSLRAEDTAVYYCVRTDGDYWGQGTLVTVSS VL: ELQLTQSPLSLPVTLGQPASISCRSSQSLADSQGNTYLHWYLQRPGQSPRLLIYKVSNRFSGVPDRFSGSGSGTDFTLKISRVEAEDVGVYYCSQSTHVPWTFGGGTKLEIKR
8 | – | – | 20.7 | PG102_Var16 (antibody, human IgG4 S228P, kappa, V domains shown, IgG4pro(deltaK)/kappa; also called FFP104_Var16) VH: QVQLVESGGGLVKPGGSLRLSCAVSGFSLSRYSVYWIRQAPGKGLEWMGMMWGGGSTDYSTSVKGRFTISKDNAKTSVYLQMSSLRAEDTAVYYCVRTDGDYWGQGTLVTVSS VL: DIVMTQSPLSLPVTPGQPASISCRSSQSLASSQGNTYLHWYLQKPGQSPRLLIYKVSNRFSGVPDRFSGSGSGTDFTLKISRVEAEDVGVYYCSQSTHVPWTFGGGTKLEIKR
9 | – | – | 29.4 | PG102_Var15 (antibody, human IgG4 S228P, kappa, V domains shown, IgG4pro(deltaK)/kappa; also called FFP104_Var15) VH: QVQLQESGPGLVKPSQTLSLTCTVSGFSLSRYSVYWVRQPPGKGLEWIGMMWGGGSTDYNPSLKSRLTISKDTSKSQVSLKLSSLTAADTAVYYCVRTDGDYWGQGTLVTVSS VL: DIVMTQSPLSLPVTPGQPASISCRSSQSLASSQGNTYLHWYLQKPGQSPRLLIYKVSNRFSGVPDRFSGSGSGTDFTLKISRVEAEDVGVYYCSQSTHVPWTFGGGTKLEIKR
10 | 16.6 | 86 | 39.7 | PG102_Var6 (antibody, human IgG4 S228P, kappa, V domains shown, IgG4pro(deltaK)/kappa; also called FFP104_Var6) VH: QVQLQESGPGLVKPSETLSITCTVSGFSLSRYSVYWVRQPPGKGLEWMGMMWGGGSTDYSTSLKSRLTISKDTSKSQVSLKMSSLTAADTAVYYCVRTDGDYWGQGTLVTVSS VL: ELQLTQSPLSLPVTLGQPASISCRSSQSLASSQGNTYLHWYLQRPGQSPRLLIYKVSNRFSGVPDRFSGSGSGTDFTLKISRVEAEDVGVYYCSQSTHVPWTFGGGTKLEIKR
11 | 20.2 | 87.2 | 30.1 | PG102_Var2 (antibody, human IgG4 S228P, kappa, V domains shown, IgG4pro(deltaK)/kappa; also called FFP104_Var2) VH: QVQLQESGPGLVKPSETLSITCTVSGFSLSRYSVYWVRQPPGKGLEWMGMMWGGGSTDYSTSLKSRLTISKDTSKSQVSLKMSSLTAADTAVYYCVRTDGDYWGQGTLVTVSS VL: ELQLTQSPLSLPVTLGQPASISCRSSQSLASSSGNTYLHWYLQRPGQSPRLLIYKVSNRFSGVPDRFSGSGSGTDFTLKISRVEAEDVGVYYCSQSTHVPWTFGGGTKLEIKR
12 | 14.4 | 75.8 | 4.35 | PG102_Var10 (antibody, human IgG4 S228P, kappa, V domains shown, IgG4pro(deltaK)/kappa; also called FFP104_Var10) VH: QVQLQESGPGLVKPSETLSITCTVSGFSLSRYSVYWVRQPPGKGLEWMGMMWGGGSTDYSTSLKSRLTISKDTSKSQVSLKMSSLTAADTAVYYCVRTDGDYWGQGTLVTVSS VL: ELQLTQSPLSLPVTLGQPASISCRSSQSLADSQGNTYLHWYLQRPGQSPRLLIYKVSNRFSGVPDRFSGSGSGTDFTLKISRVEAEDVGVYYCSQSTHVPWTFGGGTKLEIKR
13 | – | – | 17 | PG102_Var9 (antibody, human IgG4 S228P, kappa, V domains shown, IgG4pro(deltaK)/kappa; also called FFP104_Var9) VH: QVQLQESGPGLVKPSETLSITCTVSGFSLSRYSVYWIRQPPGKGPEWMGMMWGGGSTDYSTSLKSRLTISKDTSKSQVSLKMSSLTAADTAVYYCVRTDGDYWGQGTLVTVSS VL: ELQLTQSPLSLPVTLGQPASISCRSSQSLADSQGNTYLHWYLQRPGQSPRLLIYKVSNRFSGVPDRFSGSGSGTDFTLKISRVEAEDVGVYYCSQSTHVPWTFGGGTKLEIKR
14 | 21.8 | 85.5 | 23 | PG102_Var14 (antibody, human IgG4 S228P, kappa, V domains shown, IgG4pro(deltaK)/kappa; also called FFP104_Var14) VH: QVQLQESGPGLVKPSETLSITCTVSGFSLSRYSVYWVRQPPGKGLEWMGMMWGGGSTDYSTSLKSRLTISKDTSKSQVSLKMSSLTAADTAVYYCVRTDGDYWGQGTLVTVSS VL: DIVMTQSPLSLPVTPGQPASISCRSSQSLASSQGNTYLHWYLQKPGQSPRLLIYKVSNRFSGVPDRFSGSGSGTDFTLKISRVEAEDVGVYYCSQSTHVPWTFGGGTKLEIKR
15 | -0.9 | 81.8 | 34.9 | PG102_Var1 (antibody, human IgG4 S228P, kappa, V domains shown, IgG4pro(deltaK)/kappa; also called FFP104_Var1) VH: QVQLQESGPGLVKPSETLSITCTVSGFSLSRYSVYWIRQPPGKGPEWMGMMWGGGSTDYSTSLKSRLTISKDTSKSQVSLKMSSLTAADTAVYYCVRTDGDYWGQGTLVTVSS VL: ELQLTQSPLSLPVTLGQPASISCRSSQSLASSSGNTYLHWYLQRPGQSPRLLIYKVSNRFSGVPDRFSGSGSGTDFTLKISRVEAEDVGVYYCSQSTHVPWTFGGGTKLEIKR
16 | – | – | 29.5 | PG102_Var4 (antibody, human IgG4 S228P, kappa, V domains shown, IgG4pro(deltaK)/kappa; also called FFP104_Var4) VH: QVQLVESGGGLVKPGGSLRLSCAVSGFSLSRYSVYWIRQAPGKGLEWMGMMWGGGSTDYSTSVKGRFTISKDNAKTSVYLQMSSLRAEDTAVYYCVRTDGDYWGQGTLVTVSS VL: ELQLTQSPLSLPVTLGQPASISCRSSQSLASSSGNTYLHWYLQRPGQSPRLLIYKVSNRFSGVPDRFSGSGSGTDFTLKISRVEAEDVGVYYCSQSTHVPWTFGGGTKLEIKR
17 | – | – | 12.6 | PG102_Var11 (antibody, human IgG4 S228P, kappa, V domains shown, IgG4pro(deltaK)/kappa; also called FFP104_Var11) VH: QVQLQESGPGLVKPSQTLSLTCTVSGFSLSRYSVYWVRQPPGKGLEWIGMMWGGGSTDYNPSLKSRLTISKDTSKSQVSLKLSSLTAADTAVYYCVRTDGDYWGQGTLVTVSS VL: ELQLTQSPLSLPVTLGQPASISCRSSQSLADSQGNTYLHWYLQRPGQSPRLLIYKVSNRFSGVPDRFSGSGSGTDFTLKISRVEAEDVGVYYCSQSTHVPWTFGGGTKLEIKR
